Patent US20140206608A1 (priority 2012, published 2014)
Like-named read-outs stand apart in the source and are kept apart here. *1 amine or outer side, *2 acyl side, *3 side chain or, on linkers, in order; H or OH if unused. Where no end group is shown, it is not given here. Side-chain parts run from the residue outwards. [ ]: non-standard residue; d: D form. The star is where a group is joined. γGlu = O=C(O)[C@H](CCC(=O)[*:2])N[*:1]; Palmitoyl = CCCCCCCCCCCCCCCC(=O)*; x70 = not defined here; Aib = CC(C)(N)C(=O)O

T1: human GIP receptor (human, UniProt P48546 22-466)
T1 sequence (looked up): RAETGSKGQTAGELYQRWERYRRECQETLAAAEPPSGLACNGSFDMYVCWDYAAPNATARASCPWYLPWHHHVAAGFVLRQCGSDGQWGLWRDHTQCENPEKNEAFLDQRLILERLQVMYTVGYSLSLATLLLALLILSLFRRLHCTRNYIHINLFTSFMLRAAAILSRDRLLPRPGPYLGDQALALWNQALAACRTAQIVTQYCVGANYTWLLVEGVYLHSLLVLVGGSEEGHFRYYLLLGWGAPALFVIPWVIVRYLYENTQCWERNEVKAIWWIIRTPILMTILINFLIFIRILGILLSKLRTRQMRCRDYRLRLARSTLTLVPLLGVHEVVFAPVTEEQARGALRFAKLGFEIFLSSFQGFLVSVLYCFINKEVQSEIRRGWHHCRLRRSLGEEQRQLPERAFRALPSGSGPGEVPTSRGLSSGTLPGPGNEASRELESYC

T2: human GIP receptor (hGIP R) (Homo sapiens, UniProt P48546)
T2 construct: expressed in transfected cells; host or cells: HEK-293
T2 sequence (P48546 22-466): T1 sequence (looked up)

B1: SEQ ID NO: 11 (peptide)
peptide: Y[Aib]EGTFTSDLSIQK([γGlu-Palmitoyl])EEEAVRLFIEWLKAGGPSSGAPPPS-NH2
modifications: N-terminus assumed
SMILES: CCCCCCCCCCCCCCCC(=O)N[C@@H](CCC(=O)NCCCC[C@H](NC(=O)[C@H](CCC(N)=O)NC(=O)[C@@H](NC(=O)[C@H](CO)NC(=O)[C@H](CC(C)C)NC(=O)[C@H](CC(=O)O)NC(=O)[C@H](CO)NC(=O)[C@@H](NC(=O)[C@H](Cc1ccccc1)NC(=O)[C@@H](NC(=O)CNC(=O)[C@H](CCC(=O)O)NC(=O)C(C)(C)NC(=O)[C@@H](N)Cc1ccc(O)cc1)[C@@H](C)O)[C@@H](C)O)[C@@H](C)CC)C(=O)N[C@@H](CCC(=O)O)C(=O)N[C@@H](CCC(=O)O)C(=O)N[C@@H](CCC(=O)O)C(=O)N[C@@H](C)C(=O)N[C@H](C(=O)N[C@@H](CCCNC(=N)N)C(=O)N[C@@H](CC(C)C)C(=O)N[C@@H](Cc1ccccc1)C(=O)N[C@H](C(=O)N[C@@H](CCC(=O)O)C(=O)N[C@@H](Cc1c[nH]c2ccccc12)C(=O)N[C@@H](CC(C)C)C(=O)N[C@@H](CCCCN)C(=O)N[C@@H](C)C(=O)NCC(=O)NCC(=O)N1CCC[C@H]1C(=O)N[C@@H](CO)C(=O)N[C@@H](CO)C(=O)NCC(=O)N[C@@H](C)C(=O)N1CCC[C@H]1C(=O)N1CCC[C@H]1C(=O)N1CCC[C@H]1C(=O)N[C@@H](CO)C(N)=O)[C@@H](C)CC)C(C)C)C(=O)O

What was measured:
[1] = biological target: T3, human glucagon receptor (hGLUC R) (Homo sapiens, UniProt P47871); experiment: cAMP response of HEK-293 cells stably expressing human glucagon receptor (HTRF); assay type: cell-based; details: EC50 hGLUC R, Table 7; cAMP formation
T3 construct: expressed in transfected cells; host or cells: HEK-293
Method: (§1) cAMP content of cells was determined using a kit from Cisbio Corp. (cat. no. 62AM4PEC) based on HTRF (Homogenous Time Resolved Fluorescence). For preparation, cells were split into T175 culture flasks and grown overnight to near confluency in medium (DMEM/10% FBS). Medium was then removed and cells washed with PBS lacking calcium and magnesium, followed by proteinase treatment with accutase (Sigma-Aldrich cat. no. A6964). Detached cells were washed and resuspended in assay buffer (1×HBSS; 20 mM HEPES, 0.1% BSA, 2 mM IBMX) and cellular density determined. They were then diluted to 400000 cells/ml and 25 μl-aliquots dispensed into the wells of 96-well plates. For measurement, 25 μl of test compound in assay buffer was added to the wells, followed by incubation for 30 minutes at room temperature.

[2] = biological target: T4, human GLP-1 receptor (hGLP-1 R) (Homo sapiens, UniProt P43220); experiment: cAMP response of HEK-293 cells stably expressing human GLP-1 receptor (HTRF); assay type: cell-based; details: cAMP formation
T4 construct: expressed in transfected cells; host or cells: HEK-293
Method: as §1

human GIP receptor = biological target: T1, human GIP receptor; experiment: cell-based or functional assay
human GLP-1 receptor = human GLP-1 receptor (human, UniProt P43220 24-463); experiment: cell-based or functional assay
[3] = biological target: T2, human GIP receptor (hGIP R); experiment: cAMP response of HEK-293 cells stably expressing human GIP receptor (HTRF); assay type: cell-based
Method: as §1

human glucagon receptor = human glucagon receptor (human, UniProt P47871 26-477); experiment: cell-based or functional assay
Chain of human glucagon receptor (P47871 26-477): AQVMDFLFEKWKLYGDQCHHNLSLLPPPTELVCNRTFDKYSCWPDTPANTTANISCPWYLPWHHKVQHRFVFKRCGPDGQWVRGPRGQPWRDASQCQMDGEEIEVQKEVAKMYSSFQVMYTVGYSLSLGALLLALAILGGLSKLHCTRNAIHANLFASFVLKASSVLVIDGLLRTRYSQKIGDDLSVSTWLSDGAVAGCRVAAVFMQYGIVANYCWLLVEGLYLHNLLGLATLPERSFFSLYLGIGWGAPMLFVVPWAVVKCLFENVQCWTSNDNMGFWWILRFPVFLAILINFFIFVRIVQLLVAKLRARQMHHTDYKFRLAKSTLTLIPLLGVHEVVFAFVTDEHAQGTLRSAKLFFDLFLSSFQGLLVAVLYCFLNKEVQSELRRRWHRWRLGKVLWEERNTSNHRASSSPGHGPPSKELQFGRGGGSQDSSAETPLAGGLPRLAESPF

T4 sequence (P43220 24-463): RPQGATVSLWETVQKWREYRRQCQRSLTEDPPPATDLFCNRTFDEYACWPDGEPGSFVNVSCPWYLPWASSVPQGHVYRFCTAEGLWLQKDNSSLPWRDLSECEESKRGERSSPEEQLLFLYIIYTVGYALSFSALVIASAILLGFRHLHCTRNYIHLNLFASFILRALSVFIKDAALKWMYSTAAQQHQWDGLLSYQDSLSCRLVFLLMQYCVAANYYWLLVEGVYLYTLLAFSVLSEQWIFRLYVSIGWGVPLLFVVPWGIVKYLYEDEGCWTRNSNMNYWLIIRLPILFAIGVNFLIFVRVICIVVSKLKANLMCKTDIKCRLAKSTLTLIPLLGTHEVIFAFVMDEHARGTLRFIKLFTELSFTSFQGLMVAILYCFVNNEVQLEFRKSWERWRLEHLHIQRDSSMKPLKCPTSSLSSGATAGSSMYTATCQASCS
T3 sequence (P47871 26-477): as the sequence (P47871 26-477) above

| Molecule | EC50 hGIP R [pM] (formed cAMP) (human GIP receptor) | EC50 hGLP-1 R [pM] (formed cAMP) (human GLP-1 receptor) | EC50 hGLUC R [pM] (formed cAMP) (human glucagon receptor) | other results |
| --- | --- | --- | --- | --- |
| CCCCCCCCCCCCCCCCCC(=O)N[C@@H](CCC(=O)NCCCC[C@H](NC(=O)[C@H](CCC(N)=O)NC(=O)[C@@H](NC(=O)[C@H](CO)NC(=O)[C@H](CC(C)C)NC(=O)[C@H](CC(=O)O)NC(=O)[C@H](CO)NC(=O)[C@@H](NC(=O)[C@H](Cc1ccccc1)NC(=O)[C@@H](NC(=O)CNC(=O)[C@H](CCC(=O)O)NC(=O)C(C)(C)NC(=O)[C@@H](N)Cc1ccc(O)cc1)[C@@H](C)O)[C@@H](C)O)[C@@H](C)CC)C(=O)N[C@@H](CCC(=O)O)C(=O)N[C@@H](CCC(=O)O)C(=O)N[C@@H](CCC(=O)O)C(=O)N[C@@H](C)C(=O)N[C@H](C(=O)N[C@@H](CCCNC(=N)N)C(=O)N[C@@H](CC(C)C)C(=O)N[C@@H](Cc1ccccc1)C(=O)N[C@H](C(=O)N[C@@H](CCC(=O)O)C(=O)N[C@@H](Cc1c[nH]c2ccccc12)C(=O)N[C@@H](CC(C)C)C(=O)N[C@@H](CCCCN)C(=O)NC(C)(C)C(=O)NCC(=O)NCC(=O)N1CCC[C@H]1C(=O)N[C@@H](CO)C(=O)N[C@@H](CO)C(=O)NCC(=O)N[C@@H](C)C(=O)N1CCC[C@H]1C(=O)N1CCC[C@H]1C(=O)N1CCC[C@H]1C(=O)N[C@@H](CO)C(N)=O)[C@@H](C)CC)C(C)C)C(=O)O [SEQ ID NO: 12, Y-Aib-E-G-T-F-T-S-D-L-S-I-Q-K(γE-x70)-E-E-E-A-V-R-L-F-I-E-W-L-K-Aib-G-G-P-S-S-G-A-P-P-P-S-NH2] |  |  |  | EC50 [1]: 95.9 nM; EC50 ([2]; EC50 hGLP-1 R, Table 7): 0.0119 nM |
| Tyr(1)Ile(12)-GLP1 (peptide) | 3660 | 5 |  |  |
| CCCCCCCCCCCCCCCC(=O)N[C@@H](CCC(=O)NCCCC[C@H](NC(=O)[C@H](CCC(N)=O)NC(=O)[C@@H](NC(=O)[C@H](CO)NC(=O)[C@H](CC(C)C)NC(=O)[C@H](CC(=O)O)NC(=O)[C@H](CO)NC(=O)[C@@H](NC(=O)[C@H](Cc1ccccc1)NC(=O)[C@@H](NC(=O)CNC(=O)[C@H](CCC(=O)O)NC(=O)C(C)(C)NC(=O)[C@@H](N)Cc1ccc(O)cc1)[C@@H](C)O)[C@@H](C)O)[C@@H](C)CC)C(=O)N[C@@H](CCC(=O)O)C(=O)N[C@@H](CCCCN)C(=O)N[C@@H](CCC(=O)O)C(=O)N[C@@H](C)C(=O)N[C@H](C(=O)N[C@@H](CCCNC(=N)N)C(=O)N[C@@H](CC(C)C)C(=O)N[C@@H](Cc1ccccc1)C(=O)N[C@H](C(=O)N[C@@H](CCC(=O)O)C(=O)N[C@@H](Cc1c[nH]c2ccccc12)C(=O)N[C@@H](CC(C)C)C(=O)N[C@@H](CCCCN)C(=O)N[C@@H](CC(N)=O)C(=O)NCC(=O)NCC(=O)N1CCC[C@H]1C(=O)N[C@@H](CO)C(=O)N[C@@H](CO)C(=O)NCC(=O)N[C@@H](C)C(=O)N1CCC[C@H]1C(=O)N1CCC[C@H]1C(=O)N1CCC[C@H]1C(=O)N[C@@H](CO)C(N)=O)[C@@H](C)CC)C(C)C)C(=O)O [SEQ ID NO: 8, Y-Aib-E-G-T-F-T-S-D-L-S-I-Q-K(γE-x53)-EKEAVRLFIEWLKNGGPSSGAPPPS-NH2] |  |  |  | EC50 ([3]; Table 7, cAMP formation, read-out: EC50 hGIP R): 0.0167 nM; EC50 ([2]; Table 7, read-out: EC50 hGLP-1 R): 0.0201 nM |
| H-YAEGTFTSDVSIYLEGQAAKEFIAWLVKGR-NH2 [SEQ ID NO: 7, YAEGTFTSDVSIYLEGQAAKEFIAWLVKGR-NH2, reference compound] |  |  |  | EC50 ([3]; Table 2, cAMP formation, read-out: EC50 hGIP R): 3.66 nM; EC50 ([2]; Table 2, read-out: EC50 hGLP-1 R): 0.005 nM |
| CCCCCCCCCCCCCCCC(=O)N[C@@H](CCC(=O)NCCCC[C@H](NC(=O)[C@H](CCC(N)=O)NC(=O)[C@@H](NC(=O)[C@H](CO)NC(=O)[C@H](CC(C)C)NC(=O)[C@H](CC(=O)O)NC(=O)[C@H](CO)NC(=O)[C@@H](NC(=O)[C@H](Cc1ccccc1)NC(=O)[C@@H](NC(=O)CNC(=O)[C@H](CCC(=O)O)NC(=O)C(C)(C)NC(=O)[C@@H](N)Cc1ccc(O)cc1)[C@@H](C)O)[C@@H](C)O)[C@@H](C)CC)C(=O)N[C@@H](CCC(=O)O)C(=O)N[C@@H](CCC(=O)O)C(=O)N[C@@H](CCC(=O)O)C(=O)N[C@@H](C)C(=O)N[C@H](C(=O)N[C@@H](CCCNC(=N)N)C(=O)N[C@@H](CC(C)C)C(=O)N[C@@H](Cc1ccccc1)C(=O)N[C@H](C(=O)N[C@@H](CCC(=O)O)C(=O)N[C@@H](Cc1c[nH]c2ccccc12)C(=O)N[C@@H](CC(C)C)C(=O)N[C@@H](CCCCN)C(=O)N[C@@H](C)C(=O)NCC(=O)NCC(=O)N1CCC[C@H]1C(=O)N[C@@H](CO)C(=O)N[C@@H](CO)C(=O)NCC(=O)N[C@@H](C)C(=O)N1CCC[C@H]1C(=O)N1CCC[C@H]1C(=O)N1CCC[C@H]1C(=O)N[C@@H](CO)C(N)=O)[C@@H](C)CC)C(C)C)C(=O)O [SEQ ID NO: 11, Y-Aib-E-G-T-F-T-S-D-L-S-I-Q-K(γE-x53)-EEEAVRLFIEWLKAGGPSSGAPPPS-NH2] |  |  |  | EC50 [3]: 0.0057 nM |
| Y[Aib]EGTFTSDLSIQK([γGlu-x70])EEEAVRLFIEWLKAGGPSSGAPPPS-NH2 (reading uncertain) [SEQ ID NO: 10] | 6.7 | 12.5 | > 1e+06 |  |
| Y[Aib]EGTFTSDLSIQK([γGlu-x70])EKEAVRLFIEWLKAGGPSSGAPPPS-NH2 (reading uncertain) [SEQ ID NO: 13] | 16.8 | 21.2 | 200000 |  |
| Y[Aib]EGTFTSDLSIQK([γGlu-x70])EEEAVRLFIEWLK[Aib]GGPSSGAPPPS-NH2 (reading uncertain) [SEQ ID NO: 9] | 14.6 | 26.7 | 164000 |  |
| Y[Aib]EGTFTSDLSIQK([γGlu-x70])EEEAVRLFIEWLK[Aib]GGPSSGAPPPS-NH2 (reading uncertain) [SEQ ID NO: 12] | 14.6 | 11.9 | 95900 |  |
| B1 | 5.7 | 9.3 | 429000 |  |
